Measured values from patent US7056679 (ANTYRA, dated 2006).
No end group written: not given here.

T1: DGI-2 (UniProt Q15004 1-111, limits assumed)
T1 construct: Soluble recombinant DGI-2 made by in vitro translation (RTS, pIVEX2.3-MCS vector) and coated on plates for the ELISA; vector tag not described; also called KIAA0101; DGI-2 polypeptide
T1 sequence (looked up): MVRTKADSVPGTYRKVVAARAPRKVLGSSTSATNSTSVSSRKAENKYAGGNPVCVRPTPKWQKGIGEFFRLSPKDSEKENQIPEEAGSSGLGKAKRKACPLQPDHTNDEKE


target: T1, DGI-2; experiment: phage ELISA, coated DGI-2
Procedure: For analysis of individual target binders, colonies were picked and phage prepared as described above using helper phage, M13KO7. Ninety-six-well microtiter plates were coated with 500 ng/well of specific target protein, 500 ng/well lactate dehydrogenase (LDH) irrelevant or non-specific target, 500 ng/well of positive control antibody raised against ETAG, and negative control of non-fat milk powder-PBS 2% at 4° C. overnight. Plates were then blocked with 350 microliters/well PBS containing 2% non-fat milk for 1 hr at room temperature. One hundred microliters per well of phage from isolated clones were added and plates were incubated at room temperature for 2 hr after centrifuging samples for 20 minutes at 3500 rpm at 4° C. The phage solution was then removed, and the wells were washed three times with PBS at room temperature. Antibody raised against M13 conjugated to horseradish peroxidase (Pharmacia) was diluted 1:3000 in PBS-Tween and added to each well (100 µl/well). Incubation was for 1 hr at room temperature, followed by washing with PBS-(0.5%) Tween 3 times as described. Color was developed by addition of ABTS solution (100 µl/well; Boehringer, Indianapolis, Ind.). Plates were analyzed at 405 nm. A clone was considered "positive" if the $A405$ of the well was $\geq$2-fold over background.

| Binder | binding result |
| --- | --- |
| LGRTFVWGTCLHLSVSRFGH (on M13 phage, pIII fusion with E-tag) [DGI-2-20F-PP-C3] | binds |
| SLSLYWDAQVGCEVFWGYCV (not fully specified; cysteine pairing not given here, on M13 phage, pIII fusion with E-tag) [DGI-2-20R-3-C10] | binds |
| QGSAHVVRPPGVYDVPWKVGMFFHPQNWPNSWGRAYFRSG (on M13 phage, pIII fusion with E-tag) [DGI-2-40F-3-D12] | binds |
| RVSYEMLGRRRRSMHGSSMR (on M13 phage, pIII fusion with E-tag) [DGI-2-20F-PP-A4] | binds |
| MSSTAWTDRILQRGIGLGPV (on M13 phage, pIII fusion with E-tag) [DGI-2-20R-4-F1212] | binds |
| RWSICRGLQYSIPGCAVEDLSDVMA (on M13 phage, pIII fusion with E-tag) [DGI-2-20C-4-H316] | binds |
| VHSQGRMWAIPGLRGGTGAS (on M13 phage, pIII fusion with E-tag) [DGI-2-20R-3-D7] | binds |
| SWRLWVSGELQGDRRKGLRG (on M13 phage, pIII fusion with E-tag) [DGI-2-20R-3-B7] | binds |
| MGVVLECEGGWSIPGQTCYF (not fully specified; cysteine pairing not given here, on M13 phage, pIII fusion with E-tag) [DGI-2-20R-3-C7] | binds |
| WVVALRRIRLGLRRGVECLL (on M13 phage, pIII fusion with E-tag) [DGI-2-20F-PP-D5] | binds |
| SLFERSARSRYHGSPDCNGS (on M13 phage, pIII fusion with E-tag) [DGI-2-20F-PP-A3] | binds |
| REFFNQASRGAWGYMFREWVEG (on M13 phage, pIII fusion with E-tag) [DGI-2-40F-3-A1] | binds |
| RPVVCLAGLTLAQFGWVFPGWRGWS (on M13 phage, pIII fusion with E-tag) [DGI-2-20C-3-C1039] | binds |
| TANGHRYGGCGLWCKWMSGM (not fully specified; cysteine pairing not given here, on M13 phage, pIII fusion with E-tag) [DGI-2-20R-4-E2] | binds |
| SIILAGCVWVMPCGQNLGGV (not fully specified (bridges); cysteine pairing not given here, on M13 phage, pIII fusion with E-tag) [DGI-2-20F-PP-C4] | binds |
| DRSRAPLCADKSGRWQRYRR (on M13 phage, pIII fusion with E-tag) [DGI-2-20F-PP-C10] | binds |
| GSTRLRVTVRFCSETGTPGC (not fully specified; cysteine pairing not given here, on M13 phage, pIII fusion with E-tag) [DGI-2-20F-PP-G6] | binds |
| EVFVSVWVFRFRVMPVTPGGT (on M13 phage, pIII fusion with E-tag) [DGI-2-20F-PP-E6] | binds |
| ACSVGTALVFPQRWWYLGRS (on M13 phage, pIII fusion with E-tag) [DGL-2-20R-3-D6] | binds |
| LTPYSLARSWLSGRPSTGAT (on M13 phage, pIII fusion with E-tag) [DGI-2-20F-3-C12] | binds |
| RFWSVSYQGGRVMCREWGYCLPI (not fully specified (bridges); cysteine pairing not given here, on M13 phage, pIII fusion with E-tag) [DGI-2-40F-3-C92] | binds |
| GLRACDTYLGFCVGARRIDD (on M13 phage, pIII fusion with E-tag) [DGI-2-20F-3-B102] | binds |
| MSTLQGPGHLFQMLRRASLG (on M13 phage, pIII fusion with E-tag) [DGI-2-20R-4-H12] | binds |
| VRAVYSRDAYNEVGRWMRVGI (on M13 phage, pIII fusion with E-tag) [DGI-2-20F-PP-D9] | binds |
| GLYQRGLAPRCRGERFGVRN (on M13 phage, pIII fusion with E-tag) [DGI-2-20F-PP-C2] | binds |
| SSVWATWGSDLRTFGSVGFL (on M13 phage, pIII fusion with E-tag) [DGI-2-20F-PP-C7] | binds |

| Binder | binding result |
| --- | --- |
| YTPASILTGFQRGYEGAGNG (on M13 phage, pIII fusion with E-tag) [DGI-2-20R-4-G7] | binds |
| RNWLDKDCVWMGDCGARAGE (on M13 phage, pIII fusion with E-tag) [DGI-2-20F-4-E3] | binds |
| TVKFQGVVQERSRIAGFRYCGDHAVSWGLAGCPALRDKLQ (on M13 phage, pIII fusion with E-tag) [DGI-2-40F-3-C424] | binds |
| GWGCSVPGILCVGGHRQGGG (not fully specified; cysteine pairing not given here, on M13 phage, pIII fusion with E-tag) [DGI-2-20R-3-B11] | binds |
| GLEPVPFQTDKRIAMGWTREWLVNGYGAAHRRDARMQSGH (on M13 phage, pIII fusion with E-tag) [DGI-2-40F-3-D6] | binds |
| DGKHLTKWSGRGWWSAWVGG (on M13 phage, pIII fusion with E-tag) [DGI-2-20R-3-B12] | binds |
| LSLLSVVVRSMGASAPQRQV (on M13 phage, pIII fusion with E-tag) [DGI-2-20F-3-A7] | binds |
| TFTRDVAGPAVSFVRLHSWN (on M13 phage, pIII fusion with E-tag) [DGI-2-20F-PP-A9] | binds |
| YGTAGLFLRRACTMSDPGDPLGRRGYTGWGVLWDEWVTGS (on M13 phage, pIII fusion with E-tag) [DGI-2-40F-3-C8] | binds |
| ALRSLGSGGFGWQAGRASPQGMTHFPYFGWSGMPTARVRP (on M13 phage, pIII fusion with E-tag) [DGI-2-40F-3-D7] | binds |
| VLQRSLWKDWVDGVMHGGGSRGV (on M13 phage, pIII fusion with E-tag) [DGI-2-20R-3-A7] | binds |
| GSVLERGCLEFSGFCFSLGH (on M13 phage, pIII fusion with E-tag) [DGI-2-20F-3-C1] | binds |
| LHFGSVMGWRPPGSLWSRPFGQVHPRSWSGS (on M13 phage, pIII fusion with E-tag) [DGI-2-40F-3-D11] | binds |
| VVRQGCMAFSGLCSGVTESE (not fully specified; cysteine pairing not given here, on M13 phage, pIII fusion with E-tag) [DGI-2-20R-3-C8] | binds |
| LPQSRWLSEAWASWVDGVVD (on M13 phage, pIII fusion with E-tag) [DGI-2-20F-4-F9] | binds |
| SYRNFAMQSSLQVRRGSVVEDGTCWWEGVRCYSG (on M13 phage, pIII fusion with E-tag) [DGI-2-40F-4-F6] | binds |
| SRPGWCSRGTAWGFPGCSSS (not fully specified (bridges); cysteine pairing not given here, on M13 phage, pIII fusion with E-tag) [DGI-2-20R-3-C4] | binds |
| YAMSSRECGIRNSGLILSMW (on M13 phage, pIII fusion with E-tag) [DGI-2-20F-PP-C9] | binds |
| TSCQVMFLAGQHLLSRVPRL (on M13 phage, pIII fusion with E-tag) [DGL-2-20R-3-B6] | binds |
| DAGIGWVGSMWFPPGCIGAC (not fully specified (bridges); cysteine pairing not given here, on M13 phage, pIII fusion with E-tag) [DGI-2-20R-4-E82] | binds |
| CRNFGVIWGAGWVSPGCEDI (not fully specified, on M13 phage, pIII fusion with E-tag) [DGI-2-20E-3-A1] | binds |
| LSHPMSPLRAASQMALTQGV (on M13 phage, pIII fusion with E-tag) [DGI-2-20R-4-H7] | binds |
| GNKCFPPHDLFWDPCDQLQS (not fully specified (bridges); cysteine pairing not given here, on M13 phage, pIII fusion with E-tag) [DGI-2-20R-4-F6] | binds |
| GGGRESWGGGWFMGWGSGAG (on M13 phage, pIII fusion with E-tag) [DGI-2-20R-3-A6] | binds |
| MFQDVACDLWHSVRCLRRDV (not fully specified (bridges); cysteine pairing not given here, on M13 phage, pIII fusion with E-tag) [DGI-2-20R-3-B3] | binds |
